From patent publication US20150299252A1
Where no end group is shown, it is not given here.

T1: lectin MAA from Maackia amurensis (Maackia amurensis), P0DKL3
T1 chain: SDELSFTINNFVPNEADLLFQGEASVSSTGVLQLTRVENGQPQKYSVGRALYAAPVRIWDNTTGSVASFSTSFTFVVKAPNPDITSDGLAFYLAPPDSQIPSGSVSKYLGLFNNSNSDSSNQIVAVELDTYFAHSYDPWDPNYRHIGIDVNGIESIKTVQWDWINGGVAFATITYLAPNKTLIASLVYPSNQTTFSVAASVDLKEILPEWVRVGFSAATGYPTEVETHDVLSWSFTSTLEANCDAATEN

B1: biotinylated SVH1C (quadravalent, C-terminal ε-biotinyl-lysine amide) (peptide)
peptide: NPSHPLSGGGGS
chain: KKKK
modifications: not checked

Legend:
[1] = biological target: lectin MAA from Maackia amurensis (Maackia amurensis) (UniProt P0DKL3); experiment: solid-phase competition; fetuin against SVH1C for MAA
[2] = biological target: lectin SNA1 from Sambucus nigra (Sambucus nigra) (UniProt Q41358)
Sequence of lectin SNA1 from Sambucus nigra (Sambucus nigra) (Q41358 29-289 limits assumed, chain 1 of 2): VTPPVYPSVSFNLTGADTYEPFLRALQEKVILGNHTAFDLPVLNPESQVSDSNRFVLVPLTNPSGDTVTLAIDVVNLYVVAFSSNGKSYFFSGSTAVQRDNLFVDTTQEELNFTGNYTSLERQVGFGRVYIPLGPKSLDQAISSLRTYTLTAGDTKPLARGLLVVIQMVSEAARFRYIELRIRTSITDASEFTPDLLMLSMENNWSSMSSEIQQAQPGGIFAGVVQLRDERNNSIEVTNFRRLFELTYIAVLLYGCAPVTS
Sequence of lectin SNA1 from Sambucus nigra (Sambucus nigra) (Q41358 309-570 limits assumed, chain 2 of 2): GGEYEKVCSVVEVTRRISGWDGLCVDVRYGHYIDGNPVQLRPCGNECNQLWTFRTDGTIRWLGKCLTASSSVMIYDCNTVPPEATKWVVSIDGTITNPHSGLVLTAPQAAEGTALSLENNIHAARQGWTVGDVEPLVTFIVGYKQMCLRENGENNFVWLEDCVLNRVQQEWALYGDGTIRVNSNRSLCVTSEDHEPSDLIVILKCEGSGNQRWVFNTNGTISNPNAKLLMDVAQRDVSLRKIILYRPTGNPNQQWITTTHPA

[3] = biological target: lectin MAA from Maackia amurensis (Maackia amurensis) (UniProt P0DKL3); experiment: solid-phase competition; fetuin against 100 pmoles of SVH1C on streptavidin for peroxidase-conjugated MAA
[4] = biological target: lectin SNA1 from Sambucus nigra (Sambucus nigra), Q41358; experiment: solid-phase assay, peptide titrated into wells containing bound lectin
Sequence of lectin SNA1 from Sambucus nigra (Sambucus nigra), Q41358 (Q41358 29-289 limits assumed, chain 1 of 2): as the sequence (Q41358 29-289 limits assumed, chain 1 of 2) above
Sequence of lectin SNA1 from Sambucus nigra (Sambucus nigra), Q41358 (Q41358 309-570 limits assumed, chain 2 of 2): as the sequence (Q41358 309-570 limits assumed, chain 2 of 2) above

[5] = biological target: T1, lectin MAA from Maackia amurensis …; experiment: as above

Molecule | percent inhibition at a 5-fold molar excess of fetuin over peptide [1] | amount of fetuin giving essentially complete inhibition (pmoles of fetuin per well) [2] | percent inhibition at 100 pmoles fetuin per well [2] | amount of fetuin giving essentially complete inhibition (pmoles of fetuin per well) [3] | percent inhibition at 100 pmoles fetuin per well [3] | amount of peptide at saturation [4] | amount of peptide at saturation [5]
fetuin (from UniProt P12763 19-359) | 90% | 500 | 50% | 500 | 50% |  | 
B1 |  |  |  |  |  | 100 pmol | 100 pmol
